The results in this text go back to the supplement of paper PMC5998384.

Data set [1] has as its system HeLa Kyoto. As to the kind of experiment: solubility in G1/S (NP-40 vs SDS abundance) (log2 ratio); higher = more soluble. As to conditions: cell cycle stage: G1/S.
Data set [2] concerns HeLa Kyoto. As to the kind of experiment: solubility change mitosis vs G1/S (difference of NP-40 vs SDS log2 ratios) (log2 ratio difference); higher = more soluble in mitosis.
Data set [3] relates to HeLa Kyoto. As to the kind of experiment: thermal stability score vs G1/S (z-score of summed log2 fold changes over temperatures); higher = more thermally stable than in G1/S.
For data set [4], the system named is HeLa Kyoto. As to the kind of experiment: melting temperature (median over replicates), in situ; higher = more thermally stable.
The mark [5] stands for this setting: cell cycle stage: early G1 (4.5 h after nocodazole release).
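Throughout, for melting temperature (median over replicates), in situ: HeLa Kyoto cells synchronized by double thymidine or nocodazole block, proteins quantified by TMT10plex mass spectrometry, three independent biological replicates.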
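Throughout, for solubility change mitosis vs G1/S (difference of NP-40 vs SDS log2 ratios): synchronized HeLa Kyoto cells (double thymidine block for G1/S, nocodazole release for mitosis), protein amounts in NP-40 versus SDS lysates quantified by mass spectrometry, three biological replicates.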
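Throughout, for solubility in G1/S (NP-40 vs SDS abundance): HeLa Kyoto cells arrested at G1/S by double thymidine block, proteins quantified by TMT10plex mass spectrometry in mild NP-40 versus SDS extracts, three biological replicates.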
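Throughout, for thermal stability score vs G1/S (z-score of summed log2 fold changes over temperatures): synchronized HeLa Kyoto cells, proteins quantified by TMT10plex mass spectrometry, three biological replicates, mitosis taken 0.5 h after nocodazole release, G1/S directly after double thymidine block.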

On to “MDRVTRYPILGIPQAHRGTGLVLDGDTSYTYHLVCMGPEASGWGQDEPQTWPTDHRAQQGVQRQGVSYSVHAYTGQPSPRGLHSENREDEGWQVYRLGARDAHQGRPTWALRPEDGEDKEMKTYRLDAGDADPRRLCDLERERWAVIQGQAVRKSSTVATLQGTPDHGDPRTPGPPRSTPLEENVVDREQIDFLAARQQFLSLEQANKGAPHSSPARGTPAGTTPGASQAPKAFNKPHLANGHVVPIKPQVKGVVREENKVRAVPTWASVQVVDDPGSLASVESPGTPKETPIEREIRLAQEREADLREQRGLRQATDHQELVEIPTRPLLTKLSLITAPRRERGRPSLYVQRDIVQETQREEDHRREGLHVGRASTPDWVSEGPQPGLRRALSSDSILSPAPDARAADPAPEVRKVNRIPPDAYQPYLSPGTPQLEFSAFGAFGKPSSLSTAEAKAATSPKATMSPRHLSESSGKPLSTKQEASKPPRGCPQANRGVVRWEYFRLRPLRFRAPDEPQQAQVPHVWGWEVAGAPALRLQKSQSSDLLERERESVLRREQEVAEERRNALFPEVFSPTPDENSDQNSRSSSQASGITGSYSVSESPFFSPIHLHSNVAWTVEDPVDSAPPGQRKKEQWYAGINPSDGINSEVLEAIRVTRHKNAMAERWESRIYASEEDD [MISP]”, for which the “solubility in G1/S (log2)” value in the data set with HeLa Kyoto [1] was -2.09. Moreover, the “solubility change mitosis (log2)” value in the data set with HeLa Kyoto [2] came out at 1.38. Further, the values for the thermal stability score in the data set with HeLa Kyoto [3] (setting [5]) and in the data set on HeLa Kyoto [3] (cell cycle stage: mitosis) were -1.21 and -1.86, respectively. The melting temperature in the data set on HeLa Kyoto [4] (cell cycle stage: mitosis) stood at 51.9 °C.
“MDSDDEMVEEAVEGHLDDDGLPHGFCTVTYSSTDRFEGNFVHGEKNGRGKFFFFDGSTLEGYYVDDALQGQGVYTYEDGGVLQGTYVDGELNGPAQEYDTDGRLIFKGQYKDNIRHGVCWIYYPDGGSLVGEVNEDGEMTGEKIAYVYPDERTALYGKFIDGEMIEGKLATLMSTEEGRPHFELMPGNSVYHFDKSTSSCISTNALLPDPYESERVYVAESLISSAGEGLFSKVAVGPNTVMSFYNGVRITHQEVDSRDWALNGNTLSLDEETVIDVPEPYNHVSKYCASLGHKANHSFTPNCIYDMFVHPRFGPIKCIRTLRAVEADEELTVAYGYDHSPPGKSGPEAPEWYQVELKAFQATQQK [SETD7]”: the “solubility in G1/S (log2)” value in the data set with HeLa Kyoto [1] was -0.127. Further, in the data set on HeLa Kyoto [2], the “solubility change mitosis (log2)” value is -0.119. Moreover, the thermal stability score in the data set with HeLa Kyoto [3] (setting [5]) is 1.42; in the data set on HeLa Kyoto [3] (cell cycle stage: mitosis) it was 2.54. Moreover, the melting temperature turned out to be 48.7 °C with HeLa Kyoto [4] (cell cycle stage: G1/S) and 50.5 °C with HeLa Kyoto [4] (cell cycle stage: mitosis).
As to “MDSVEKGAATSVSNPRGRPSRGRPPKLQRNSRGGQGRGVEKPPHLAALILARGGSKGIPLKNIKHLAGVPLIGWVLRAALDSGAFQSVWVSTDHDEIENVAKQFGAQVHRRSSEVSKDSSTSLDAIIEFLNYHNEVDIVGNIQATSPCLHPTDLQKVAEMIREEGYDSVFSVVRRHQFRWSEIQKGVREVTEPLNLNPAKRPRRQDWDGELYENGSFYFAKRHLIEMGYLQGGKMAYYEMRAEHSVDIDVDIDWPIAEQRVLRYGYFGKEKLKEIKLLVCNIDGCLTNGHIYVSGDQKEIISYDVKDAIGISLLKKSGIEVRLISERACSKQTLSSLKLDCKMEVSVSDKLAVVDEWRKEMGLCWKEVAYLGNEVSDEECLKRVGLSGAPADACSTAQKAVGYICKCNGGRGAIREFAEHICLLMEKVNNSCQK [CMAS]”, in the data set with HeLa Kyoto [1], the “solubility in G1/S (log2)” value was -0.289. Also, the “solubility change mitosis (log2)” value with HeLa Kyoto [2] was found to be 0.303. The thermal stability score in the data set with HeLa Kyoto [3] (setting [5]) is -0.251; with HeLa Kyoto [3] (cell cycle stage: mitosis), -0.391. Also, the melting temperature worked out at 50.8 °C in the data set with HeLa Kyoto [4] (cell cycle stage: G1/S) and 50 °C with HeLa Kyoto [4] (cell cycle stage: mitosis).
Turning to “MDTESTYSGYSYYSSHSKKSHRQGERTRERHKSPRNKDGRGSEKSVTIQPPTGEPLLGNDSTRTEEVQDDNWGETTTAITGTSEHSISQEDIARISKDMEDSVGLDCKRYLGLTVASFLGLLVFLTPIAFILLPPILWRDELEPCGTICEGLFISMAFKLLILLIGTWALFFRKRRADMPRVFVFRALLLVLIFLFVVSYWLFYGVRILDSRDRNYQGIVQYAVSLVDALLFIHYLAIVLLELRQLQPMFTLQVVRSTDGESRFYSLGHLSIQRAALVVLENYYKDFTIYNPNLLTASKFRAAKHMAGLKVYNVDGPSNNATGQSRAMIAAAARRRDSSHNELYYEEAEHERRVKKRKARLVVAVEEAFIHIQRLQAEEQQKAPGEVMDPREAAQAIFPSMARALQKYLRITRQQNYHSMESILQHLAFCITNGMTPKAFLERYLSAGPTLQYDKDRWLSTQWRLVSDEAVTNGLRDGIVFVLKCLDFSLVVNVKKIPFIILSEEFIDPKSHKFVLRLQSETSV [VANGL1]”, the “solubility in G1/S (log2)” value with HeLa Kyoto [1] was -0.322. The “solubility change mitosis (log2)” value in the data set with HeLa Kyoto [2] stood at 0.00763. The values for the thermal stability score in the data set with HeLa Kyoto [3] (setting [5]) and with HeLa Kyoto [3] (cell cycle stage: mitosis) were -1.85 and -3.36, respectively. In addition, the melting temperature is 56 °C in the data set with HeLa Kyoto [4] (cell cycle stage: G1/S) and 54.7 °C in the data set with HeLa Kyoto [4] (cell cycle stage: mitosis).
Turning to “MDTPENVLQMLEAHMQSYKGNDPLGEWERYIQWVEENFPENKEYLITLLEHLMKEFLDKKKYHNDPRFISYCLKFAEYNSDLHQFFEFLYNHGIGTLSSPLYIAWAGHLEAQGELQHASAVLQRGIQNQAEPREFLQQQYRLFQTRLTETHLPAQARTSEPLHNVQVLNQMITSKSNPGNNMACISKNQGSELSGVISSACDKESNMERRVITISKSEYSVHSSLASKVDVEQVVMYCKEKLIRGESEFSFEELRAQKYNQRRKHEQWVNEDRHYMKRKEANAFEEQLLKQKMDELHKKLHQVVETSHEDLPASQERSEVNPARMGPSVGSQQELRAPCLPVTYQQTPVNMEKNPREAPPVVPPLANAISAALVSPATSQSIAPPVPLKAQTVTDSMFAVASKDAGCVNKSTHEFKPQSGAEIKEGCETHKVANTSSFHTTPNTSLGMVQATPSKVQPSPTVHTKEALGFIMNMFQAPTLPDISDDKDEWQSLDQNEDAFEAQFQKNVRSSGAWGVNKIISSLSSAFHVFEDGNKENYGLPQPKNKPTGARTFGERSVSRLPSKPKEEVPHAEEFLDDSTVWGIRCNKTLAPSPKSPGDFTSAAQLASTPFHKLPVESVHILEDKENVVAKQCTQATLDSCEENMVVPSRDGKFSPIQEKSPKQALSSHMYSASLLRLSQPAAGGVLTCEAELGVEACRLTDTDAAIAEDPPDAIAGLQAEWMQMSSLGTVDAPNFIVGNPWDDKLIFKLLSGLSKPVSSYPNTFEWQCKLPAIKPKTEFQLGSKLVYVHHLLGEGAFAQVYEATQGDLNDAKNKQKFVLKVQKPANPWEFYIGTQLMERLKPSMQHMFMKFYSAHLFQNGSVLVGELYSYGTLLNAINLYKNTPEKVMPQGLVISFAMRMLYMIEQVHDCEIIHGDIKPDNFILGNGFLEQDDEDDLSAGLALIDLGQSIDMKLFPKGTIFTAKCETSGFQCVEMLSNKPWNYQIDYFGVAATVYCMLFGTYMKVKNEGGECKPEGLFRRLPHLDMWNEFFHVMLNIPDCHHLPSLDLLRQKLKKVFQQHYTNKIRALRNRLIVLLLECKRSRK [BUB1]”, in the data set with HeLa Kyoto [1], the “solubility in G1/S (log2)” value is -0.019. In addition, the “solubility change mitosis (log2)” value with HeLa Kyoto [2] was -0.112. Moreover, the figures for the thermal stability score in the data set on HeLa Kyoto [3] (setting [5]) and in the data set on HeLa Kyoto [3] (cell cycle stage: mitosis) were 0.554 and 1.15, respectively. Besides, the melting temperature in the data set with HeLa Kyoto [4] (cell cycle stage: G1/S) amounted to 48.8 °C; with HeLa Kyoto [4] (cell cycle stage: mitosis), 49.9 °C.
